Laboratory results published in US20250129167A1.

Biological target: PD-L1 on CHO-PD-L1 cells (Promega blockade system) (UniProt Q9NZQ7)
Sequence (Q9NZQ7 19-290 limits assumed): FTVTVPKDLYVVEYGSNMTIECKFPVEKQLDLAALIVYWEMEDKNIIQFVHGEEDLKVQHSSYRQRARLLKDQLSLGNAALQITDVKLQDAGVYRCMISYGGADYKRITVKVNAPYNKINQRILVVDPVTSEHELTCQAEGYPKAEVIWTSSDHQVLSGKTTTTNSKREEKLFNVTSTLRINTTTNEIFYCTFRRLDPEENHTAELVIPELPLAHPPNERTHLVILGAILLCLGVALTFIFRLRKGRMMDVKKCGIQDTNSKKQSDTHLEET

EC50 (read off the curve); luciferase fold induction, Promega CHO-PD-L1 / PD-1 Jurkat assay: 0.1 nM
Substance: Tecentriq (antibody)
